Targets include HLA-A*33:01; HLA-A*11:01; HLA-A*03:01; HLA-A*31:01; HLA-A*68:01.
Assay in all cases: IEDB peptide-MHC binding, purified MHC/competitive/radioactivity; filed as Kd, often an IC50 or EC50 that approximates it; ≥ and ≤ were set here for values at or beyond the usual limits of such assays
The mark [1] stands for this setting: source organism: Lymphocytic choriomeningitis virus (strain Armstrong).
Setting [2] is: source organism: SARS coronavirus Tor2.
[3] abbreviates: source organism: Vaccinia virus WR.
[4] abbreviates: source organism: Triticum aestivum.
[5] abbreviates: source organism: Mammarenavirus machupoense.
[6] abbreviates: source organism: Vaccinia virus Copenhagen.

Where only a bound is given, the exact number is not on record here.

For the sequence NSESLSLISH, the Kd (usually the free concentration of one partner at which half of the binding sites on the other are occupied at equilibrium, for simple one-to-one binding) with HLA-A*33:01 (setting [1]) is at least 31800 nM; in the experiment with HLA-A*11:01 (setting [1]), 8050 nM; with HLA-A*03:01 (setting [1]), at least 23400 nM; in the experiment with HLA-A*31:01 (setting [1]), 16900 nM; with HLA-A*68:01 (setting [1]), at least 29300 nM.
As to VVPDYGTYK, the Kd in the experiment with HLA-A*33:01 (setting [2]) is 17200 nM; in the experiment with HLA-A*11:01 (setting [2]), 84.4 nM; with HLA-A*03:01 (setting [2]) it was 309 nM; with HLA-A*31:01 (setting [2]), 2720 nM; in the experiment with HLA-A*68:01 (setting [2]), 494 nM.
On to EIITGNKVK, for which the Kd with HLA-A*33:01 (setting [3]) was at least 77700 nM; with HLA-A*11:01 (setting [3]), 1200 nM; with HLA-A*03:01 (setting [3]), at least 78000 nM; in the experiment with HLA-A*31:01 (setting [3]), at least 77900 nM; with HLA-A*68:01 (setting [3]), 233 nM.
Turning to QQHNIVHGK, the Kd was at least 77700 nM with HLA-A*33:01 (setting [4]); 914 nM with HLA-A*11:01 (setting [4]); 12500 nM in the experiment with HLA-A*03:01 (setting [4]); 2370 nM with HLA-A*31:01 (setting [4]); 728 nM with HLA-A*68:01 (setting [4]).
Take EWMLIAAKMK: the Kd with HLA-A*33:01 (setting [5]) was 49 nM; with HLA-A*11:01 (setting [5]), at least 24100 nM; with HLA-A*03:01 (setting [5]) it was 5950 nM; in the experiment with HLA-A*31:01 (setting [5]), 1260 nM; with HLA-A*68:01 (setting [5]) it was 3530 nM.
Take QLDEKSSIK: the dissociation constant Kd was at least 56800 nM in the experiment with HLA-A*33:01 (setting [3]); 510 nM with HLA-A*11:01 (setting [3]); 204 nM with HLA-A*03:01 (setting [3]); 4300 nM with HLA-A*31:01 (setting [3]); 14000 nM with HLA-A*68:01 (setting [3]).
Taken in the same sequence, the figures for NFFTELENKK were at least 32800 nM, at least 32300 nM, at least 61800 nM, at least 70000 nM and 6670 nM.
For FTDISMSLYK the same measures were 4210 nM, 8.84 nM, 55.9 nM, 9320 nM and 24.9 nM.
For WLSSKGLACY the same measures were at least 58600 nM, at least 28900 nM, 418 nM, 19500 nM and at least 28300 nM.
For LSRLRYNLCK, the Kd with HLA-A*33:01 (setting [3]) was 2640 nM; with HLA-A*11:01 (setting [3]) it was 715 nM; with HLA-A*03:01 (setting [3]), 92.9 nM; in the experiment with HLA-A*31:01 (setting [3]), 206 nM; in the experiment with HLA-A*68:01 (setting [3]) it was 3510 nM.
Consider SFYYIWKSY, for which the dissociation constant (Kd) with HLA-A*33:01 (setting [2]) stood at 779 nM; with HLA-A*11:01 (setting [2]) it was 6730 nM; with HLA-A*03:01 (setting [2]) it was 5150 nM; with HLA-A*31:01 (setting [2]) it was 68.1 nM; with HLA-A*68:01 (setting [2]), 447 nM.
In the case of DSIPISELSR, the Kd with HLA-A*33:01 (setting [3]) was 25.5 nM; with HLA-A*11:01 (setting [3]) it was 986 nM; with HLA-A*03:01 (setting [3]), at least 44900 nM; in the experiment with HLA-A*31:01 (setting [3]), 4140 nM; with HLA-A*68:01 (setting [3]), 12.3 nM.
Regarding NTLSERISSK, the Kd was determined as 404 nM with HLA-A*33:01 (setting [3]); 0.736 nM in the experiment with HLA-A*11:01 (setting [3]); 48.8 nM with HLA-A*03:01 (setting [3]); 1410 nM in the experiment with HLA-A*31:01 (setting [3]); 9.48 nM in the experiment with HLA-A*68:01 (setting [3]).
As for RIQRRDDVDR, the Kd in the experiment with HLA-A*33:01 (setting [3]) is 17600 nM; with HLA-A*11:01 (setting [3]), at least 69800 nM; in the experiment with HLA-A*03:01 (setting [3]) it was at least 70100 nM; with HLA-A*31:01 (setting [3]) it was 78.5 nM; with HLA-A*68:01 (setting [3]), at least 42500 nM.
For NATDFWRLY the same measures were 526 nM, 126 nM, 44.1 nM, 477 nM and 52.3 nM.
As for RVDIYYNGNK, the Kd with HLA-A*33:01 (setting [3]) is at least 53600 nM; with HLA-A*11:01 (setting [3]) it was 4.86 nM; with HLA-A*03:01 (setting [3]), 45.6 nM; in the experiment with HLA-A*31:01 (setting [3]) it was 5360 nM; with HLA-A*68:01 (setting [3]), 120 nM.
As for LTILDDNLYK, the Kd in the experiment with HLA-A*33:01 (setting [6]) was 17700 nM; in the experiment with HLA-A*11:01 (setting [6]) it was 3.38 nM; with HLA-A*03:01 (setting [6]), 229 nM; in the experiment with HLA-A*31:01 (setting [6]) it was 6840 nM; in the experiment with HLA-A*68:01 (setting [6]), 19.5 nM.
Regarding KFTTSLSLHK, the Kd came out at 8190 nM in the experiment with HLA-A*33:01 (setting [2]); 135 nM with HLA-A*11:01 (setting [2]); 275 nM with HLA-A*03:01 (setting [2]); 239 nM with HLA-A*31:01 (setting [2]); 302 nM in the experiment with HLA-A*68:01 (setting [2]).
For ATKIIALNK the same measures were at least 77700 nM, 334 nM, 1360 nM, 840 nM and 15900 nM.
Turning to KTDFKVVKK, the Kd with HLA-A*33:01 (setting [3]) turned out to be 1210 nM; in the experiment with HLA-A*11:01 (setting [3]), 60.6 nM; with HLA-A*03:01 (setting [3]), 14.8 nM; in the experiment with HLA-A*31:01 (setting [3]), 71.1 nM; in the experiment with HLA-A*68:01 (setting [3]), 365 nM.
Taken in the same sequence, the figures for ISARALKAY were 16400 nM, 334 nM, 542 nM, 9600 nM and 2470 nM.
Regarding MLAHAEETRK, the Kd with HLA-A*33:01 (setting [2]) was at least 70000 nM; with HLA-A*11:01 (setting [2]), 6390 nM; with HLA-A*03:01 (setting [2]), 496 nM; with HLA-A*31:01 (setting [2]), 9410 nM; in the experiment with HLA-A*68:01 (setting [2]), 157 nM.
For the sequence NLPYNWKNFY, the Kd is 18600 nM in the experiment with HLA-A*33:01 (setting [3]); 4360 nM in the experiment with HLA-A*11:01 (setting [3]); 1780 nM with HLA-A*03:01 (setting [3]); 1720 nM with HLA-A*31:01 (setting [3]); 626 nM with HLA-A*68:01 (setting [3]).

Values taken from the Immune Epitope Database (IEDB).
